Reference: the DeepSol protein solubility set

Assay: soluble on expression in E. coli; label from the status in PepcDB or PDB records

Soluble on expression in E. coli, not soluble:
MGSDKIHHHHHHMCRLSLLKSSHLFKEQLLAASYSIQCVSQIAILGAPLWNALMAGANRQDQNGPANPFCRYEYLHALELSGCVGEQTGWRPMHLVVSEAGQIGENNQASAQGGDRQIDPSKVLAVMPLYLKGHSYGEYVFDWAWAQAYERHGLEYYPKLVNAIPFTPVTGSRIGFRVDLSEAQKAGLIGKIGEHLDLLTKACSASSWHSLFLLESERQPLVSKGHLQRLGTQFHWFNRDYQSFDDFLSRLTSRRRKSILKERRAITKAGLKFHFIDGAEITEDELTHFVHCYQRTYYKRSGHQGYLNAAFFSAVVKNMADKVRLLMVERPQANKLEAQAGSDARSEVGSAQEIEPIAAALYFVGGDCLYGRYWGALEEIEGLHFETCYYQGIDYAIAQRLKKFDAGAQGEHKVLRGFEPIPTYSIHEILHGDFRRAIADFIEQEARAVKIYMNELEAILPFKREGD
MGSDKIHHHHHHMDDGTRLGQADHAAGPRPPGVIFTMRYPSDVGFVWKTIALHRDLIARAFGGEARCILAYPQLSPTSAYQPRWSTAIQADFYDYSAENRQRLERVITDEAIRLVVFMSAQPADVDLGFLRGLGLRTVTSENNSYDHSLRQPFMKRLAKALIRRVLKRQVFDLHIANSQAQYDFLRGFAQLPASRLRAVRNGVDTDHFQPGERTGACSTLGLDPDRLWIMAASQARPEKRLERVLEVIRAVKDARPALPIGFFFVGEGENLAEWRQIALGLPDAETYRFFGRQNDLRPYYQAASVFIHGAFRESFGLVIAEAMASGLPVVATHAHGPAEIIAEGETGRLVGRDDWEGLGKAVIEYLDDAELRRTHGLAGRARCVALFSITRQAQEFADLLRPFLKDGAGAPY
MGSDKIHHHHHHMDEALAHANGETPAVGDYMTRDVATVSADDTVSDVAARISESDHNGFPVTDGRHVEGFVSARDLLLADPDELLFKVMTEDLVVAHPEMDVTDAARVILRSGIQKLPVVDDAGNLVGIITNADVIRSQIERATPEKVGKLMRTLETIHGVSITEERRTVTISDVVPTQGKVYADELEGRRYELENGLAEPLVVIDNGSTGDDGSLLLADGHHRVMAAERAGVAEMDAYVIVLERAVDLGMARTARTEGLDSIADIDVVDYARHPLVETIERLQ
MGSDKIHHHHHHMDEQQQLANAYHSNKLSHAYLFEGDDAQTMKRVAIHFTKLILCNNSNQCELKVDTFNHPDFSYVSSDENTIKKEQIEQLVHHMNQLPIEGQYKVYIIEDFEKLTVQGENSILKFLEEPPDNTIAILLSTKPEQILDTIHSRCQHVYFKPIDKRQFIERLVEMSIARPVAEMLSTYTTQIEAASSLNEEFDLVTLRKSIIRWCQLILSNKAMALIGVIELLKQAKNRKLQLLTLSAVNGFFEDIMHAKIEMDNYYTFSDLTEEIENYANQLTFNQLILMYDQITEAHKKLNQNVNPTLVFEQIVIKGVI
MGSDKIHHHHHHMDGTRERPMRKIIAATFVSLDGVMQAPGGPEEDPVGGFKFGGWTFHYFDEVGGAAMDELFSKPFTLLLGRRTYDIFTAYWPYQKDPIADAFNPATKYVATHRPDTLTWQNTQWLGEDIVAALRRLSKQDGPDLLIQRSADLIQTLLANGLIDEIRLMIFPLLLGKGKRLFGDGAMPAAFKLVKSQTSSTGVIIATYERSGEIEVGSFVMGEPSVAELERRRNWK
MGSDKIHHHHHHMDHEQIESQPWPQEGLERVERCPICGEVDRALLHDGLTDKIFFCAPGRWSLYQCPTCGAAYLDPRPTPATIAMAYSDYYTHEEGDDAPKGRFAHLKRRLRNDYLNARYNADLQPAWKVGRWITPLLGRKRKQIDESVRHLPATGKPGVLVDIGCGNGQFLGVAMQLGWEAWGVDLDPKAVKTAQKTGATVIQGGFPDTGLPSAHFDIVTLSHVIEHVHDPLAALREAFRVLKPGGHLWLATPNMGSFGHVRFGADWRGLEPPRHLVLFNNNSLEIALDGAGFIDIKQKPCLAQAAWFYQSSLRISRCQDPYDASASGLPLTLWIAAKLVDFRVAVSPFRCESIVVTAKRPESD
MGSDKIHHHHHHMDIELREKIAGEITLSDSPAETIRKWREEFKVSQLELSNFLNQSPSVISDYETGRRKFPSIASVRKIVDALITIDERRGGYVIKKYKSGVPSDALIDIKDYDRDVPLEKAIRAMNGKNVSHVSVERNIRGYTIVDGVKAILAFSYYEYSKLYGWSSERAIFFTDVKFGRSPMIAIRVHPLKPAAVVYIQPDNVDDLAIKLADIENIPLLITEMSPEAVSHVMSQLR
MGSDKIHHHHHHMDIIEELRAYREKDIPYSRVLSSMCTVPHPVAVEAHRMFIETNLGDPGIFRGTVELEAKLMRLIGDILHCETPAGYICSGGTEANIQGIRAARNVQKKENPNIVIPKTAHFSFEKIGDILGVKIKRAGVDEEYKVDVGQVEDLMDENTVAIVGIAGTTELGQIDPIVELSKLAEERQVELHVDAAFGGLVIPFMDNPYPFDFQNRGVSSITIDPHKMGMATIPAGGIIFRNESYLRALEVETPYLTSKTQFTLTGTRPGTGVASAYAVLKSLGFEGMREVVKNCLKNTRILVEEMRDLGFEPVIEPVMNVVSFRTDEAERIKEELYRMRWVISTIREPKAIRFVVMPHVTEEVIKNFISDFRKVLRR
MGSDKIHHHHHHMDIKQLKFLIALDQTRHFGQAAALCHITQPTLSMRLRNLEDELDLVLVKRGQRFEGFTEAGERILAWARTLLAAHDGLQAEAASCRGQVVGSLRLGTVPLASFNPMHLLLPLREKYPELHFQLSSLSSEQVIDGLSRNQLDLGICYLDQVNTSFFEVIELGTTTMGLLHDTRHFQFTSDRLRWDELGDIPLGLLSKGMHYRQSLDLSFRSRGLEPNAVLESDSSFQLIQAINTGICCAIMPLDCGLEDLSEHLRIVPVADAAIHSPVGLLLRRSEPRSAIAEQCFAEARGLFQAS
MGSDKIHHHHHHMDIQNMPREQLGVCAEGNLHSVYLMFNANDNVESQLRPCIANVAQYIYELTDQYSDSAFNGFVAIGANYWDSLYPESRPEMLKPFPAMQEGNREAPAIEYDLFVHLRCDRYDILHLVANEISQMFEDLVELVEEERGFRFMDSRDLTGFVDGTENPKGRHRQEVALVGSEDPEFKGGSYIHVQKYAHNLSKWHRLPLKKQEDIIGRTKQDNIEYESEDKPLTSHIKRVNLKDENGKSIEILRQSMPYGSLKEQGLMFISTCRTPDHFEKMLHSMVFGDGAGNHDHLMHFTSALTGSSFFAPSLDFLMQFDN
MGSDKIHHHHHHMDKLQRISEAIKSKKKLVVMFSGGVDSTLLAKLAREVLGKNAVALTIDSPVIPRKEIEEAKNLANLIGIRHEFIELNELKSRHLIENPPDRCYLCRKLRDNIVKNWARENGFDVIADGLNFSDLQDYRPGVKASTEDGIWHPFIDFEVTKEEIREYSKKLGLPTWDKPAMACLCSRFPYGFGLNEERVRMVEKAENFLRELGFREVRVRFFPYKTAVVEVGRDEMELLMGKRTDIVLALQKIGFSFVTLDLEGFASGKLNRTIEGMSK
MGSDKIHHHHHHMDNLIIKPGYVTQFQCVGPECEDSCCYDWRISFDKKSYKNTIKHPLLATTAKSAFIETKKSTSDWADIRLNEQGACPFVNEHKLCDIHAKAGEQALSHTCKTYPRIHKVIGGNKYESLYLSCPEVTRLVLFNPNAFQFDSNISGIKQPSTPSPIWLEKTHEYSLDLLVNLGLDWEQVLLAIGLLIKVSDQVRQNILPIEELDKRLQQLKLYAQSGALAEQYKNLPYSPLPQMHAFIAVHNELCKTHSRGVRERFTSLNQAVAALCNEENNYQIDALNQAWAEHAVPALISHTDLFERYILYSIYHHHFPLIDSQQLSWEAFRLLVLDCFMIRSYLSAIAFKNKGLSESDIVMCFQLYQVVRQHKIEFTQSMSKTLEECGIDSVPAAICLLKTNI
MGSDKIHHHHHHMDPRRRLVPDIITLQAFECAARHGNFTRAAEELNLTQSAVSRQIGELEAQTGMQLFERIRRRVVLSEAGRKFLPDVRRLLQQSEQLMVRAVSAGTSHASLSVATLPTFGSRWLMPRLSRFIDANPDMTITIGSRSHPFDFDEEGFDLAIHYGQPIWAHGTCTFLCNEVIVPVASPALLRRAGVNRAQDLAGQPLLHVTTRPKLWTEWLEMNGVTADNAYQGSRFDQFSMIIEAAASGIGFALLPRYLIEAELASSRLEIVFDIPLQTDKSYYVALPEGRQDNVLARAFQAWLLDQVGKPV
MGSDKIHHHHHHMDVTSTLSLGDPLEPARKATADMLRSRDHSFSLPQPFYCDQRLFEIDMQEIFHKEWLIAGMTCEIPAKGNFLTLQIGKNPVLVIRGAEGQVHAFHNVCRHRGSRLCVSEKGKVAKLVCPYHQWTYELDGRLLFAGTEMGADFDMKEYGLKPIQVKTAGGYIFISLAENPPAIDDFLATLEHYMEPYDMENAKVAVQTTIREAANWKLVIENNRECYHCNGSHPELLKTLLEWDDVTDPRASQAFKDQVAACTSAWDAEKIPYAHASFGLRNRIVRMPLLDGTVSMTMDGKQGSKKLMGRIKNPDLGSMRILHLPHSWNHCMGDHLIVFTVWPISAQETLVTTKWLVHKDAVEGVDYDVARLREVWDATNDQDRRLAEENQRGINSDAYQPGPYSKTYEFGVINFLDWYSERMLNNLGEESAHVRKVAGS
MGSDKIHHHHHHMDYYAGIDVSLELSSVCIVNQDGKIFREVKVASDPEALIGLFGGLGVALSRIGLEAGPLSQWLHAGLTAGGYDVVLLETRHVKAGLSAMTVKTDRKDARGIAHLLRMGWFRPVHCKTNSAQEIRVLLVGRKLLQSKMGDLEQGIRGLLRGFGLKVGVISKGRFAARIRELVAGQAMLETVAEPMLRARDALRAEFTLLHRQILAIVRKDDLCRRLMTVPGVGPLVALTFKSGIDDPSRFTSSKTVGAHFGLTPKKYQSGETDITGGITRTGDAMVRMALYEAAQVLLTRSQRFSSLKRWALEVAKRRGMKRAKVALARKLATVLHRMWIDGSDFRWGKEITSA
MGSDKIHHHHHHMEELLERVFSFSDVDKLIDFISYELQKPVILESADFFLLAYNSYYINHFDSANQQTIFSKKCPVQIFERFLKDGIIEKLKTEPEPFRVNKIESIGLNQRVVVSAKHKGEVMGYIWIQELDQNLTDEELDFLYETSFHVGKIIYKTNKLKQEKEEKAEDLIKRAIYQQFTSEKELRREAERINTVLPSMFSVVILHAANGDGEAVEDLKENIRSYLNLRDKVSHVLTIESNIVIVVASFSQKSSVSSAASEFINKLLTHFHFQKIPTPIYIGIGNEYNHLLKLGKSYTEALEVIKAAEITGNQENIPYEYAKLGIYRYLESIEQKNEFLEYENKDLALLKAKDEESSTELLKTLEVYLLNNCKTKPAAEQLFIHQNTLNYRIKQITEMTSIDLSDFRTRCQLYLDLMLMKKK
MGSDKIHHHHHHMEFIEFGYGTSTDENSLKAGAHAASDALKMMKKYSEKPNIVFLYSSPDYDPEEVLNGVKLILGNSVQIVGGSSKFQICGNKFLENGVSVGILGSKYFNTGMGVGLGISINPKESGKKAVKDAVENLGMLPKLLYVITDFCKCEEQVLKGIIEELGVTIPIFGGVSSDDFEFEHTYQYGNDVYLDSIVCVAFGGDIVPKISYNNYEYGENSGKLENIITKSEKRSIEEIGNISAVKRYIEISGYKGTVNELEKDPEFYLSHPLGILDTTGDIHLKGPISIKNKKLITGSNISNSNELKIENIDKNAIKNIFETNTSVLNNTQPHYEPALTFCNISSFLSEINPDEIEKLIEKSDINPFFGSSTFGEISLKKYGNYSMSMCSFAPDLVTISAKEGIHMFTKHPATKETLIKIHELGGSVKVEELAKSLGIHRRSAYDRIDPLLKYGFIEKDQAVIKITEFGKLLLKFEF
